2 molecules from patent publication US9809653B2, “Anti-LAMP1 antibodies and antibody drug conjugates, and uses thereof” (SANOFI, priority 2012, dated 2017) can be followed below.

Assay in all cases: Binding onto membrane-anchored hybrid or mutated LAMP1 proteins (293-F cells) by flow cytometry
What all share (set-up): species or system human/mouse
A general note: A flow cytometer gives signals particle by particle.

The target of assay [1] is T1, Hybrid LAMP1 / glycan-deleted LAMP1 transmembrane proteins (Mus musculus, UniProt P11438, K100R/L93T/T102A/Y92H).
T1 construct: expressed in transfected cells; host or cells: 293-F (HEK293-derived), transient transfection
T1 sequence (P11438 with tags, fused parts or gaps Y92H/L93T/K100R/T102A): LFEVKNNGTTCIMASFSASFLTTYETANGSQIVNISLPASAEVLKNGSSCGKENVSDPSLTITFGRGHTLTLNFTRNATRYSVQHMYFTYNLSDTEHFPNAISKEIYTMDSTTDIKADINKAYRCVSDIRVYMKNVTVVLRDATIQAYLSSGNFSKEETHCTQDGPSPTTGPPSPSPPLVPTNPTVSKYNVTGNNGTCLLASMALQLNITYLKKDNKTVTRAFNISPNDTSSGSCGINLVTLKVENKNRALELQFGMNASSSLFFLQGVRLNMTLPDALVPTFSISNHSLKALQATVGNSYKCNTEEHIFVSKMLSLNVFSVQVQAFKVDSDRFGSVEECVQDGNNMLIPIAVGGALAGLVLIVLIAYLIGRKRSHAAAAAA
Particulars: pXL6047 mLAMP1_hseq6_ΔGYQTI. How it is done: (§1) Different LAMP1 proteins were expressed at the cell membrane of HEK293 cells after transient expression from mammalian plasmids encoding the entire coding sequence of LAMP1 deleted of the intracellular lysosome-targeting motif GYQTI and substituted by a 5-Ala repeat sequence.
(§2) Two days post transfection cells were processed, analyzed by flow cytometry (Guava® easyCyte™ 8HT) as mentioned in example 4.7, and the mean fluorescence was recorded. This fluorescence represents a semi-quantitative assessment of binding.

Assay [2] has as its target T2, Hybrid LAMP1 / glycan-deleted LAMP1 transmembrane proteins (Homo sapiens, UniProt P11279, A93T/T85V/V91T).
T2 construct: expressed in transfected cells; host or cells: 293-F (HEK293-derived), transient transfection
T2 sequence (P11279 with tags, fused parts or gaps T85V/V91T/A93T): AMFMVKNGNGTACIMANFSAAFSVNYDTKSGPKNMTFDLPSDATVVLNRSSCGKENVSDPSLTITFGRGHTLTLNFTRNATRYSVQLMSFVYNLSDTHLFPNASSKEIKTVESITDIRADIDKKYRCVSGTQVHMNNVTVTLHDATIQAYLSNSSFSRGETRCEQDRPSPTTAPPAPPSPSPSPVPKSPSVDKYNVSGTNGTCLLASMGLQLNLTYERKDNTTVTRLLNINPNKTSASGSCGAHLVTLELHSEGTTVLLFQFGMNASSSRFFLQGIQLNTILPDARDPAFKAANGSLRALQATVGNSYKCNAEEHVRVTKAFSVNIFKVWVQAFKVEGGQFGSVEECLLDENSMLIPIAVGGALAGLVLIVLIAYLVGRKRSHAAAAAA
The conditions noted are these: pXL6017 LAMP1_mseq5_ΔGYQTI; Table 18. How it is done: as §1, §2

Assay [3] has as its target T3, Hybrid LAMP1 / glycan-deleted LAMP1 transmembrane proteins (Homo sapiens, UniProt P11279, D66S/F65I/K57A/K61Q/M63V/N62I/P60S/S58N/T64N).
T3 construct: expressed in transfected cells; host or cells: 293-F (HEK293-derived), transient transfection
T3 sequence (P11279 with tags, fused parts or gaps K57A/S58N/P60S/K61Q/N62I/M63V/T64N/F65I/D66S): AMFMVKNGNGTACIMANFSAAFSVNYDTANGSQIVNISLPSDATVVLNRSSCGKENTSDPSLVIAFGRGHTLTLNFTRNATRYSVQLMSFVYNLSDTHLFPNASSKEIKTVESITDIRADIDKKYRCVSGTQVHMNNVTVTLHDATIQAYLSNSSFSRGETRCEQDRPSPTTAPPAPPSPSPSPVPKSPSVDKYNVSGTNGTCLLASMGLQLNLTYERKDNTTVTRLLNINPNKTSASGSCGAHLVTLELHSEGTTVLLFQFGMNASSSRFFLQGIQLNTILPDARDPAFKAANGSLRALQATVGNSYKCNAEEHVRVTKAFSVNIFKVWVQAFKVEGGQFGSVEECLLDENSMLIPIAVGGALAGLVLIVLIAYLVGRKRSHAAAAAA
The conditions noted are these: pXL6014 LAMP1_mseq3_ΔGYQTI; Table 18. How it is done:
as §1, §2

The target of assay [4] is T4, Hybrid LAMP1 / glycan-deleted LAMP1 transmembrane proteins (Homo sapiens, UniProt P11279, A49S/D55E/N45S/N53T/S51L/V52T).
T4 construct: expressed in transfected cells; host or cells: 293-F (HEK293-derived), transient transfection
T4 sequence (P11279 with tags, fused parts or gaps N45S/A49S/S51L/V52T/N53T/D55E): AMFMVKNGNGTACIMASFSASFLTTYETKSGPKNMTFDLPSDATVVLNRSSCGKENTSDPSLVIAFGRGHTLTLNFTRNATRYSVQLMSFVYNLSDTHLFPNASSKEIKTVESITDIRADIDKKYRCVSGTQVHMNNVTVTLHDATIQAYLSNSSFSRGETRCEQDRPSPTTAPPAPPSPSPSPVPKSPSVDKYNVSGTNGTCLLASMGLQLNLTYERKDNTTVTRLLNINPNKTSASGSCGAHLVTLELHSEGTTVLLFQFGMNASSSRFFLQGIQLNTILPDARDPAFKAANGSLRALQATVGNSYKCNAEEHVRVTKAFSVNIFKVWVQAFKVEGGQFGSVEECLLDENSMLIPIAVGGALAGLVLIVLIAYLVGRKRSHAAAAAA
Particulars: pXL6013 LAMP1_mseq2_ΔGYQTI; Table 18. How it is done:
as §1, §2

The target of assay [5] is T5, Hybrid LAMP1 / glycan-deleted LAMP1 transmembrane proteins (Homo sapiens, UniProt P11279, D70S/L75K/R77G/S69A/T72E/V74L).
T5 construct: expressed in transfected cells; host or cells: 293-F (HEK293-derived), transient transfection
T5 sequence (P11279 with tags, fused parts or gaps S69A/D70S/T72E/V74L/L75K/R77G): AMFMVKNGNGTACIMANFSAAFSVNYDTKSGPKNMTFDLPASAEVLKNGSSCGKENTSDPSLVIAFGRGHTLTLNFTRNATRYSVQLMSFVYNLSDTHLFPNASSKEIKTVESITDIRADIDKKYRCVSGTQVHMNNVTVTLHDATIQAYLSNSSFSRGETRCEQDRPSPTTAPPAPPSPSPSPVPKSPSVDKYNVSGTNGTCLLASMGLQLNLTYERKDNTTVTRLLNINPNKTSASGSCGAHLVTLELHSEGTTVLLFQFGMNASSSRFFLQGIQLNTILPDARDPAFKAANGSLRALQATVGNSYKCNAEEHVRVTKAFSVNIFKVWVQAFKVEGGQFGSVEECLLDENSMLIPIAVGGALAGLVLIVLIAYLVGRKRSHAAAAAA
The conditions noted are these: pXL6015 LAMP1_mseq4_ΔGYQTI; Table 18. How it is done:
as §1, §2

B1: MAb1: murine monoclonal anti-LAMP1 antibody, VH SEQ ID NO: 1, VL SEQ ID NO: 5 (antibody, V domains shown)
VH: QVQLQQSGAELVKPGASVKMSCKASGYIFTNYNIHWVKKSPGQGLEWIGAIYPGNGDAPYSQKFKDKATLTADKSSSTTYMQLSRLTSEDSAVYYCVRANWDVAFAYWGQGTLVSVSA
VL: DIQMTQSPPSLSASLGGKVTITCKASQDIDRYMAWYQDKPGKGPRLLIHDTSTLQPGIPSRFSGSGSGRDYSFSISNLEPEDIATYYCLQYDNLWTFGGGTKLEIK
modifications: Antibody Fragment; antibody fragment
In the case of B1, the Binding call in assay [1] (Table 17 Experiment no1) is on record as “No binding”; in assay [1] (Table 17 Experiment no2), “No binding”; in assay [2] it was “Binding”; in assay [3], “Binding”; in assay [4], “Binding”; in assay [5] it was “Binding”. The Mean fluorescence in assay [1] (Table 17 Experiment no1) stood at 7; in assay [1] (Table 17 Experiment no2) it was 3; in assay [2], 846; in assay [3] it was 888; in assay [4] it was 990; in assay [5], 891.

B2: MAb2: murine monoclonal anti-LAMP1 antibody, VH SEQ ID NO: 8, VL SEQ ID NO: 12 (antibody, V domains shown)
VH: QVQLQQSAAELARPGASVKMSCKASGYTFTSYTMHWVKQRPGQGLEWIGYFNPSSGYPEYNQKFKDKTTLTADKSSNTAFIQLNSLTSEDSAVYYCSRGYYYGSRGYALDFWGQGASVTVSS
VL: NIVLTQSPVSLAVSLGQRATISCRASESVDINGNTFMHWYQQKPGQSPKLVIYAASNIESGVPARFSGSGSSTDFTFTIDPVEADDVATYYCQQNIEDPWTFGGGTKVEIK
modifications: antibod fragment; antibody fragment
Regarding B2, the Binding call in assay [1] (Table 17 Experiment no1) is reported as “No binding”; in assay [2], “Binding”; in assay [3] it was “Binding”; in assay [4] it was “Binding”; in assay [5], “No binding”. Also, the Mean fluorescence in assay [1] (Table 17 Experiment no1) is reported as 25; in assay [2], 629; in assay [3] it was 694; in assay [4], 694; in assay [5], 27.
